# Assay results taken from US20240116985A1 (published 2024).
# Starred links: 1 amine or outer side, 2 acyl side, 3 side chain; linkers in the order of their positions; H or OH if unused. Positions of bridges follow the written chain, without caps; N, C: chain ends. Non-standard residues stand in square brackets, D forms with d. Primed or numbered codes have the meaning given here. B5(15) = 2-amino-2-(pent-4-en-1-yl)hept-6-enoic acid (2,2-bis(4-pentenyl)glycine), stitching residue bearing two staples, C=CCCCC(CCCC=C)(N[*:1])C(=O)[*:2]; B5(23) = 2-amino-2-(pent-4-en-1-yl)hept-6-enoic acid (2,2-bis(4-pentenyl)glycine), stitching residue, C=CCCCC(CCCC=C)(N[*:1])C(=O)[*:2]; B5(4) = 2,2-bis(4-pentenyl)glycine = 2-amino-2-(pent-4-en-1-yl)hept-6-enoic acid (stitching residue), C=CCCCC(CCCC=C)(N[*:1])C(=O)[*:2]; Phe(3-F) = N[C@@H](Cc1cccc(F)c1)C(=O)O; Phe(4-F) = N[C@@H](Cc1ccc(F)cc1)C(=O)O; Bta = N[C@@H](Cc1csc2ccccc12)C(=O)O; αAllylPro = C=CC[C@@]1(C(=O)O)CCCN1; S8 = C=CCCCCCC[C@](C)(N)C(=O)O; hSer = N[C@@H](CCO)C(=O)O
# T1: full-length beta-Catenin (Uniprot ID P35222) (Homo sapiens (Human), UniProt P35222 1-781)
# T1 construct: The assay protocols call it full-length; also called B-Catenin; bCat
# T1 sequence: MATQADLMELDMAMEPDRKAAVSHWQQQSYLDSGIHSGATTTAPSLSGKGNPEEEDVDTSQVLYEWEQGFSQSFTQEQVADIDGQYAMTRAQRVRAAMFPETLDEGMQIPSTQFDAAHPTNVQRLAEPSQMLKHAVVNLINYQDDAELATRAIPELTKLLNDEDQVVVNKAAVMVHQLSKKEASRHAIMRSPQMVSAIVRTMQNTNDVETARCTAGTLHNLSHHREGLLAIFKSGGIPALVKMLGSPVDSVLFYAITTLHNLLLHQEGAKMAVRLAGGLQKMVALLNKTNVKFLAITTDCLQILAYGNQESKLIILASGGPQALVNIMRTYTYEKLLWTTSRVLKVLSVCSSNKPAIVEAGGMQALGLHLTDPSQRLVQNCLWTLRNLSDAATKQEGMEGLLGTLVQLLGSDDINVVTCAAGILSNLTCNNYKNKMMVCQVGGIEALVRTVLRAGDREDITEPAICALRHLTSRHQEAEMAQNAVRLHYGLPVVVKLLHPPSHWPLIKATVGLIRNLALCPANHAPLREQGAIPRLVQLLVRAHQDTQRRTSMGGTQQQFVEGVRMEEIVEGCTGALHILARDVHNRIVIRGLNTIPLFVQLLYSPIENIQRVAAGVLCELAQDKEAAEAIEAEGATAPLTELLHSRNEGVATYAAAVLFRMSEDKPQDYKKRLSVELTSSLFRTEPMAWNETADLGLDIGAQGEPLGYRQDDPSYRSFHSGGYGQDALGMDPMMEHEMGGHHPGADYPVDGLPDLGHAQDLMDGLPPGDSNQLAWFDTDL
# T2: full-length beta-Catenin (Uniprot ID P35222) (Homo sapiens (Human), UniProt P35222 2-781)
# T2 construct: full-length; also called bCat; B-Catenin
# T2 sequence: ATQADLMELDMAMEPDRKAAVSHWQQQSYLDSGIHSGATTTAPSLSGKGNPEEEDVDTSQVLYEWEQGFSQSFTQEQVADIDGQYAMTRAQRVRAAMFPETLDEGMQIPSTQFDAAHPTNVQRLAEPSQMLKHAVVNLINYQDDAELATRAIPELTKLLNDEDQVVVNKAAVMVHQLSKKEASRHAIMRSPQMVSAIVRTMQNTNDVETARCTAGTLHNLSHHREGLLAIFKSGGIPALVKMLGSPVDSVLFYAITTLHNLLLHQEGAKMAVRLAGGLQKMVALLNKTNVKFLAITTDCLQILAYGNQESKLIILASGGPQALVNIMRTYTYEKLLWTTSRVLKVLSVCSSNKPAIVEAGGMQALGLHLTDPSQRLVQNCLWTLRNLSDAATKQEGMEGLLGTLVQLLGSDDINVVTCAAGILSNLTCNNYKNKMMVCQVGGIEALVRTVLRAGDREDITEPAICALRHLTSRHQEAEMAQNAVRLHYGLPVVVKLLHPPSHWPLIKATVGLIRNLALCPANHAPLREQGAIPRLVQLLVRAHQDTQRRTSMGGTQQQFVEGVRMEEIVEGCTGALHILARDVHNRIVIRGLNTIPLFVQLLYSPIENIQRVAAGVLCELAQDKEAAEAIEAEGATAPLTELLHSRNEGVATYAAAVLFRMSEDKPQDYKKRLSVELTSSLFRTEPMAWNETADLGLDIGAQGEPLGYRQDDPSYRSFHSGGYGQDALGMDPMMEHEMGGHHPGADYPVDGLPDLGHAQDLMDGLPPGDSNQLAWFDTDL
# T3: B-cat-Halo (beta-catenin HaloTag NanoBRET construct expressed in HEK293 cells) (UniProt P35222 1-781)
# T3 sequence (looked up): T1 sequence
# B1: I-261 (peptide)
# peptide: Ac-[αAllylPro]DA[B5(4)]DDAAFV[S8][Phe(4-F)]WQ-NH2
# modifications: staple 1-4, 4-11
# notes: Stapled (stitched) peptide; also called Ac-PL3-Asp-Ala-B5-Asp-Asp-Ala-Ala-Phe-Val-S8-4FF-Trp-Gln-NH2
# B2: I-264 (peptide)
# peptide: Ac-[αAllylPro]DA[B5(4)]DDAA[Phe(3-F)]V[S8]FWQ-NH2
# modifications: staple 1-4, 4-11; not fully specified; printed as Ac-PL3-Asp-Ala-B5-Asp-Asp-Ala-Ala-3FF-Val-S8-Phe-Trp-Gln-NH2
# notes: Stapled (stitched) peptide; also called Ac-PL3-Asp-Ala-B5-Asp-Asp-Ala-Ala-3FF-Val-S8-Phe-Trp-Gln-NH2
# B3: I-263 (peptide)
# peptide: XDAXDDAAFVXFWQ
# modifications: not fully specified; N-terminal Ac; PL3 at 1; B5 at 4; S8 at 11; 34FF at 12; C-terminal NH2; staples PL3(1)-B5(4) and B5(4)-S8(11) by olefin metathesis
# notes: Stapled (stitched) peptide; also called Ac-PL3-Asp-Ala-B5-Asp-Asp-Ala-Ala-Phe-Val-S8-34FF-Trp-Gln-NH2
# B4: I-262 (peptide)
# peptide: XDAXDDAAFVXFWQ
# modifications: not fully specified; N-terminal Ac; PL3 at 1; B5 at 4; S8 at 11; 34FF at 12; C-terminal NH2; staples PL3(1)-B5(4) and B5(4)-S8(11) by olefin metathesis
# notes: as for B3
# B5: I-260 (peptide)
# peptide: Ac-[αAllylPro]DA[B5(4)]DDAAFV[S8][Phe(3-F)]WQ-NH2
# modifications: staple 1-4, 4-11
# notes: Stapled (stitched) peptide; also called Ac-PL3-Asp-Ala-B5-Asp-Asp-Ala-Ala-Phe-Val-S8-3FF-Trp-Gln-NH2
# B6: I-286 (peptide)
# peptide: XDAXDDAAFAXFWA
# modifications: not fully specified; N-terminal Ac; PL3 at 1; B5 at 4; S8 at 11; C-terminal NH2; staples PL3(1)-B5(4) and B5(4)-S8(11) by olefin metathesis
# notes: Stapled (stitched) peptide; also called Ac-PL3-Asp-Ala-B5-Asp-Asp-Ala-Ala-Phe-Ala-S8-Phe-Trp-Ala-NH2
# B7: I-285 (peptide)
# peptide: XDAXDDAAFVXHWQ
# modifications: not fully specified; N-terminal Ac; PL3 at 1; B5 at 4; S8 at 11; C-terminal NH2; staples PL3(1)-B5(4) and B5(4)-S8(11) by olefin metathesis
# notes: Stapled (stitched) peptide; also called Ac-PL3-Asp-Ala-B5-Asp-Asp-Ala-Ala-Phe-Val-S8-His-Trp-Gln-NH2
# B8: I-1532 (peptide)
# peptide: XDNXDEAAFQXFXQ
# modifications: not fully specified; N-terminal Ac; PL3 at 1, B5 at 4, S8 at 11 (staples PL3-B5 and B5-S8 by olefin metathesis); BztA at 13; C-terminal NH2
# notes: Stapled peptide composition; Same description as I-1531; separate, later eluting HPLC peak (staple isomer); also called Ac-PL3-Asp-Asn-B5-Asp-Glu-Ala-Ala-Phe-Gln-S8-Phe-BztA-Gln-NH2
# B9: I-1551 (peptide)
# peptide: Ac-[αAllylPro]DF[B5(23)]DEAAF[hSer][S8]F[Bta]Q-NH2
# modifications: staple 1-4, 4-11
# notes: Stapled peptide composition; also called Ac-PL3-Asp-Phe-B5-Asp-Glu-Ala-Ala-Phe-Hse-S8-Phe-BztA-Gln-NH2
# B10: I-1553 (peptide)
# peptide: Ac-[αAllylPro]DK[B5(23)]DEAAFL[S8]F[Bta]Q-NH2
# modifications: staple 1-4, 4-11
# notes: Stapled peptide composition; also called Ac-PL3-Asp-Lys-B5-Asp-Glu-Ala-Ala-Phe-Leu-S8-Phe-BztA-Gln-NH2
# B11: I-1545 (peptide)
# peptide: XDSXDEAAFQXFXQ
# modifications: not fully specified; N-terminal Ac; PL3 at 1, B5 at 4, S8 at 11 (staples PL3-B5 and B5-S8 by olefin metathesis); Hse at 3; BztA at 13; C-terminal NH2
# notes: Stapled peptide composition; later eluting HPLC peak (staple isomer); also called Ac-PL3-Asp-Hse-B5-Asp-Glu-Ala-Ala-Phe-Gln-S8-Phe-BztA-Gln-NH2
# B12: I-1554 (peptide)
# peptide: Ac-[αAllylPro]DK[B5(23)]DEAAF[hSer][S8]F[Bta]Q-NH2
# modifications: staple 1-4, 4-11
# notes: Stapled peptide composition; also called Ac-PL3-Asp-Lys-B5-Asp-Glu-Ala-Ala-Phe-Hse-S8-Phe-BztA-Gln-NH2
# B13: I-1541 (peptide)
# peptide: Ac-[αAllylPro]DQ[B5(15)]DEAAFL[S8]F[Bta]Q-NH2
# modifications: staple 1-4, 4-11
# notes: Stapled peptide composition; also called Ac-PL3-Asp-Gln-B5-Asp-Glu-Ala-Ala-Phe-Leu-S8-Phe-BztA-Gln-NH2
# Molecular target: T1, full-length beta-Catenin (Uniprot ID …)
# Experiment: fluorescence polarization competition; full-length beta-catenin with 5FAM-labelled TCF4 10-53 peptide as competitor
# Description: (§1) The plate was incubated protected from light for 60 minutes at 20° C. prior to read. Reads were performed on a CLARIOstar plate reader (BMG Labtech) in duplicate, and data were fitted to a 1:1 binding model with hill slope using an in-house script. All provided concentrations are final concentrations.
row,Binder,EC50 [nM]
1,B1,5000
2,B2,5000
3,B3,5000
4,B4,5000
5,B5,5000
6,B6,4480
7,B7,5000

# Molecular target: T2, full-length beta-Catenin (Uniprot ID …)
# Experiment: fluorescence polarization competition; displaces 5FAM-TCF4(10-53) from full-length beta-catenin
# Description: as §1
row,Binder,IC50 [nM]
1,B8,49
2,B9,16
3,B10,133
4,B11,26
5,B12,63
6,B13,39

# Molecular target: T1, full-length beta-Catenin (Uniprot ID …)
# Experiment: AlphaScreen competition; full-length beta-catenin with biotin-labelled TCF4 10-53 peptide as competitor
# Description: as §1, with “Equal volume of the titrated peptide was added to the” for “The”, “and” for “was”, “incubated for 15 minutes at 20° C. Then 4 uL of donor and 4 uL acceptor beads at 10 ug/mL were added to the plate, for a 16 uL reaction pool and” for “incubated”
row,Binder,EC50 [nM]
1,B1,347
2,B2,364
3,B3,864
4,B4,967
5,B5,683
6,B6,450
7,B7,246

# Molecular target: T3, B-cat-Halo (beta-catenin HaloTag …)
# Experiment: cell-based or functional assay
row,Binder,NanoBRET Abs IC50 [nM]
1,B8,> 20000
2,B9,19800
3,B10,> 20000
4,B11,> 20000
5,B12,> 20000
6,B13,34700
